From US20240116985A1 (published 2024)
Starred links: 1 amine or outer side, 2 acyl side, 3 side chain; linkers in the order of their positions; H or OH if unused. Positions of bridges follow the written chain, without caps; N, C: chain ends. Non-standard residues stand in square brackets, D forms with d. Primed or numbered codes have the meaning given here. *: point of attachment. PyrS2″ = (S)-3-amino-1-((pent-4-en-1-yloxy)carbonyl)pyrrolidine-3-carboxylic acid (stapling residue), C=CCCCOC(=O)N1CC[C@@](N[*:1])(C(=O)[*:2])C1; B5(4) = 2,2-bis(4-pentenyl)glycine = 2-amino-2-(pent-4-en-1-yl)hept-6-enoic acid (stitching residue), C=CCCCC(CCCC=C)(N[*:1])C(=O)[*:2]; TfeGA = (S)-2-amino-3-((carboxymethyl)(2,2,2-trifluoroethyl)amino)propanoic acid, O=C([C@H](CN(CC(=O)[*:3])CC(F)(F)F)N[*:1])[*:2]; B5(3) = 2,2-bis(4-pentenyl)glycine (stitching residue), C=CCCCC(CCCC=C)(N[*:1])C(=O)[*:2]; Phe(3-COOH) = N[C@@H](Cc1cccc(C(=O)O)c1)C(=O)O; Phe(2-Cl) = N[C@@H](Cc1ccccc1Cl)C(=O)O; Bta = N[C@@H](Cc1csc2ccccc12)C(=O)O; αAllylPro = C=CC[C@@]1(C(=O)O)CCCN1; tBuAla = CC(C)(C)C[C@H](N)C(=O)O; 3Thi = N[C@@H](Cc1ccsc1)C(=O)O; Abu = CC[C@H](N)C(=O)O; Alaol = C[C@@H](CO)N*; Aib = CC(C)(N)C(=O)O

How the values were obtained:
Test in all cases: cell-based or functional assay
[1] = target: T1, B-cat-Halo (beta-catenin HaloTag NanoBRET construct expressed in HEK293 cells) (UniProt P35222 1-781)
T1 sequence (looked up): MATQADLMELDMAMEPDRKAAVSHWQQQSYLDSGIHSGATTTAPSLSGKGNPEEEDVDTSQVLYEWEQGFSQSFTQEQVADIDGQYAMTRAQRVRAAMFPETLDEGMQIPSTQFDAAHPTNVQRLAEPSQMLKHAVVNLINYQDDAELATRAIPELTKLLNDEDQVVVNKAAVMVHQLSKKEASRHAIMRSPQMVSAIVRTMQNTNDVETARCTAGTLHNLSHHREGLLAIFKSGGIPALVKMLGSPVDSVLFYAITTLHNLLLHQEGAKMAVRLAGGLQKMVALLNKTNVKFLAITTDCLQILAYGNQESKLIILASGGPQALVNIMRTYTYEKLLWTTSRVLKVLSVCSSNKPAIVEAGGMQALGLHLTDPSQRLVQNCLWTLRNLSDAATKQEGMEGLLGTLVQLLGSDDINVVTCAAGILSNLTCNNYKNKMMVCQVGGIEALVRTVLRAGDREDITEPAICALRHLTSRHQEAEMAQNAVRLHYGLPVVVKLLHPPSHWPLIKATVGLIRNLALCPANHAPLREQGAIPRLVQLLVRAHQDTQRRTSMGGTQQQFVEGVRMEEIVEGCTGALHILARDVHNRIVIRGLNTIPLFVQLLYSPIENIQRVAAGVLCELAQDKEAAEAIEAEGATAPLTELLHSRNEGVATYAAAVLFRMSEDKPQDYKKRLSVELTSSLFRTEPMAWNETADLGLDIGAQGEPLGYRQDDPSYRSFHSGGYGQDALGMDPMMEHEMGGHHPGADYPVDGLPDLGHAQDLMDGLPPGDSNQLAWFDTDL

[2] = target: T2, beta-catenin in DLD1 TCF/LEF luciferase reporter cells (UniProt P35222 1-781)
T2 sequence (looked up): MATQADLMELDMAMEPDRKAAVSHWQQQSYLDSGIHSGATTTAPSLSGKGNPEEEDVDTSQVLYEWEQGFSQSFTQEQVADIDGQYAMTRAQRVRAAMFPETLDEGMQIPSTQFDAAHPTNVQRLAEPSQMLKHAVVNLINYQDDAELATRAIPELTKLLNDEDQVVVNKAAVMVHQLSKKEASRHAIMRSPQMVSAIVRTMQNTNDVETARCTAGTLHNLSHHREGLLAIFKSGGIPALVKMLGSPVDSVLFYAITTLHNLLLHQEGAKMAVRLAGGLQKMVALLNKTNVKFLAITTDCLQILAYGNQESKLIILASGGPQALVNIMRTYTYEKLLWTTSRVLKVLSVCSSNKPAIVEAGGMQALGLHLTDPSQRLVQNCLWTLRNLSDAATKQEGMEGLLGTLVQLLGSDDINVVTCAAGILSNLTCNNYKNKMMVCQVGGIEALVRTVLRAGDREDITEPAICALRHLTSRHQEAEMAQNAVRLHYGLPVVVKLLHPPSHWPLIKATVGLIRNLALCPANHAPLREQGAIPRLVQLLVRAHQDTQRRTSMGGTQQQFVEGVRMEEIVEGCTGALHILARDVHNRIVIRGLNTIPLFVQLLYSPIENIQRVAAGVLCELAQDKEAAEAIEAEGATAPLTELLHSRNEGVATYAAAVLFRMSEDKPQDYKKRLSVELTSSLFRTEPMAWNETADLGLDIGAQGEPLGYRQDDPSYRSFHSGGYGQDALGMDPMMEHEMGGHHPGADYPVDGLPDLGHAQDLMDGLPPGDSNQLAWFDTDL

[3] = target: T3, beta-catenin in DLD1 TCF/LEF luciferase reporter cells (Homo sapiens (Human), UniProt P35222 1-781)
T3 sequence: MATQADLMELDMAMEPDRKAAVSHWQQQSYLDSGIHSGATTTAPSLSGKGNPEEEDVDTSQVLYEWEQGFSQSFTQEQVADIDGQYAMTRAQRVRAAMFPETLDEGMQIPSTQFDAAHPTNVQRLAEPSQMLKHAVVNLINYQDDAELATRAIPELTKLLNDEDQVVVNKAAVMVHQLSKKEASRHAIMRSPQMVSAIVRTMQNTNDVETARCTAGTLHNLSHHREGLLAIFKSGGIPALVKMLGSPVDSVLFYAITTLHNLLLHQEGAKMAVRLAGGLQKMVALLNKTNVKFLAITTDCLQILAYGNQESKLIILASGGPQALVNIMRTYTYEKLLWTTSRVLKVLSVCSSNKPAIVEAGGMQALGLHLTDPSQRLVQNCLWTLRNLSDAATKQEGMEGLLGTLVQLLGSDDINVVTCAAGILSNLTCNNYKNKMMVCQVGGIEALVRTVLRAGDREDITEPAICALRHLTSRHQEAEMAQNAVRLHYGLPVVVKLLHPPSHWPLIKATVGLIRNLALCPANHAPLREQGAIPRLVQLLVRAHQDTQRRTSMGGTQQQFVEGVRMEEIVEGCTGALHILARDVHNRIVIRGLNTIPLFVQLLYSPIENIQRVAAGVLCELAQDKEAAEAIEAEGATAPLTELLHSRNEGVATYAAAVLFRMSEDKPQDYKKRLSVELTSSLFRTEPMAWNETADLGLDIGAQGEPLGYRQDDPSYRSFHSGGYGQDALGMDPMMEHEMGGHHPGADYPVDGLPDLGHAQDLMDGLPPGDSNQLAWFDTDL

B-cat-Halo = target: T4, B-cat-Halo (Homo sapiens (Human), UniProt P35222 1-781)
T4 sequence: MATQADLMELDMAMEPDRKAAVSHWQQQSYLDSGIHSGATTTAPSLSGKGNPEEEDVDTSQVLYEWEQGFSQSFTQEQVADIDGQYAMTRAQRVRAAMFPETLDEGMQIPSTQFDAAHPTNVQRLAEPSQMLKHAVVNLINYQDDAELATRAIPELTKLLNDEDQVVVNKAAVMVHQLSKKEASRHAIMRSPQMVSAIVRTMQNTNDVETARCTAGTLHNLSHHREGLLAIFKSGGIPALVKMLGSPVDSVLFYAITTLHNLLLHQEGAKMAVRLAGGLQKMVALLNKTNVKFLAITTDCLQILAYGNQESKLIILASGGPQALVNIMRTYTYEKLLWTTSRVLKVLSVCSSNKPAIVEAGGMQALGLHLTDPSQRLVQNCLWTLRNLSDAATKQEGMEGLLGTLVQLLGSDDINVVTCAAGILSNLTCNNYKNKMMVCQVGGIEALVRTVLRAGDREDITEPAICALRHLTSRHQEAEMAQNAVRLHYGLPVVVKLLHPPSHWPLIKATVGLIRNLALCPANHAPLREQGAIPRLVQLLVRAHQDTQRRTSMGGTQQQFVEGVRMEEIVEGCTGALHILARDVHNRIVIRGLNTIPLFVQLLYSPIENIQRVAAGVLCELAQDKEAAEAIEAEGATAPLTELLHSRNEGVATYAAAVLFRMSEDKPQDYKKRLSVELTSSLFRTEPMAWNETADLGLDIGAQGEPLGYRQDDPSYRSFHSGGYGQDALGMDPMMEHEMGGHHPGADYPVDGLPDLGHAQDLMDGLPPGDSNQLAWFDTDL

[4] = target: T5, beta-catenin in DLD1 TCF/LEF luciferase reporter cells (Homo sapiens (Human), UniProt P35222 1-781); remark: listed apart in the source
T5 sequence: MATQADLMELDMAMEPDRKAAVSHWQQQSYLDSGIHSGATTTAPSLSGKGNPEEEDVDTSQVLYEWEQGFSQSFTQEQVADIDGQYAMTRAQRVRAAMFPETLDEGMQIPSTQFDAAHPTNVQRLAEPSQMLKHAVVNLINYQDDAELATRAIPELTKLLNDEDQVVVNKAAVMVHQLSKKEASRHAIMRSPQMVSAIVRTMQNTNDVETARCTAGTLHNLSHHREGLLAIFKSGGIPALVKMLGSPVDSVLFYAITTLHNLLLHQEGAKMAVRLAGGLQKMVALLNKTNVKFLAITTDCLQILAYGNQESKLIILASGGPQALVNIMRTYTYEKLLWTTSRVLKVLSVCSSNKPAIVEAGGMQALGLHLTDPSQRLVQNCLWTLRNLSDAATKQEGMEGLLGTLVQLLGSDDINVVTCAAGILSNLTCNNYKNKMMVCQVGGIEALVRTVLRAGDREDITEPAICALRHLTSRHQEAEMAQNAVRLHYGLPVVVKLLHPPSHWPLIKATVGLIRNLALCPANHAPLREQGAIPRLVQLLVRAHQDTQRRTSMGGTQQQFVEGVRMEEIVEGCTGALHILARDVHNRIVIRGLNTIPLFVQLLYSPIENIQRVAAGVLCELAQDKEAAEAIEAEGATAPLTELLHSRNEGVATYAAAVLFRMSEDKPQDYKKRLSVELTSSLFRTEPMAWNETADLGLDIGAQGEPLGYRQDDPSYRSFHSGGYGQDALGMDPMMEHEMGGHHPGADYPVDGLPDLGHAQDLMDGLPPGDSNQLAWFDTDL

Binder: Ac-[αAllylPro]D[tBuAla][B5(3)]D[Phe(3-COOH)][Aib]AF[Abu][PyrS2″][3Thi][Bta][Me2Gln]A-NH2 (staple 1-4, 4-11) [Ac-PL3-Asp-Npg-B5-Asp-3COOHF-Aib-Ala-Phe-Abu-PyrS2-3Thi-BztA-Me2Gln-Ala-NH2]
- NanoBRET Abs IC50 [1]: 2300 nM
- DLD1 4% Abs IC50 [2]: 600 nM

Binder: Ac-[αAllylPro]D[tBuAla][B5(4)]D[TfeGA]AAFT[PyrS2″][Phe(2-Cl)][Bta]-Alaol (staple 1-4, 4-11) [I-1242]
- DLD1 4% Abs IC50 [3]: 3800 nM

Binder: Ac-[αAllylPro]D[tBuAla][B5(3)]D[Phe(3-COOH)]AAFL[PyrS2″][3Thi][Bta]N-NH2 (staple 1-4, 4-11) [I-2043]
- NanoBRET Abs IC50 (B-cat-Halo): 2800 nM
- DLD1 4% Abs IC50 [4]: 1000 nM
